We go through one molecule from patent US20080241152A1 (VEGENICS, published 2008).

Data set [1] deals with the molecule itself. The data set can be described thus: chemical crosslinking, SDS-PAGE (homodimer).
Data set [2] has as its target T1, KDR (VEGFR-2) expressed on porcine aortic endothelial (PAE) cells (UniProt P35968 20-1356, limits assumed).
T1 construct: whole, on cells; KDR is the name of the human receptor; also called KDR/Flk-1; PAE-KDR cells
The data set can be described thus: Scatchard analysis (125I-labelled ligand; receptor format not given, PAE/VEGFR-2 cells in the same example). The procedure: To study receptor binding, PAE/VEGFR-2 and PAE/VEGFR-3 cells were seeded into 24-well tissue culture plates (Nunclon), which had been coated with 2% gelatin in PBS. […] The binding was allowed to proceed at room temperature for 90 minutes. The plates were then transferred onto ice and washed three times with ice-cold PBS containing 0.1% BSA. The cells were then lysed in 1 M NaOH, the lysates were collected, and the radioactivity was measured using a γ-counter.

T1 sequence (P35968 20-1356 limits assumed): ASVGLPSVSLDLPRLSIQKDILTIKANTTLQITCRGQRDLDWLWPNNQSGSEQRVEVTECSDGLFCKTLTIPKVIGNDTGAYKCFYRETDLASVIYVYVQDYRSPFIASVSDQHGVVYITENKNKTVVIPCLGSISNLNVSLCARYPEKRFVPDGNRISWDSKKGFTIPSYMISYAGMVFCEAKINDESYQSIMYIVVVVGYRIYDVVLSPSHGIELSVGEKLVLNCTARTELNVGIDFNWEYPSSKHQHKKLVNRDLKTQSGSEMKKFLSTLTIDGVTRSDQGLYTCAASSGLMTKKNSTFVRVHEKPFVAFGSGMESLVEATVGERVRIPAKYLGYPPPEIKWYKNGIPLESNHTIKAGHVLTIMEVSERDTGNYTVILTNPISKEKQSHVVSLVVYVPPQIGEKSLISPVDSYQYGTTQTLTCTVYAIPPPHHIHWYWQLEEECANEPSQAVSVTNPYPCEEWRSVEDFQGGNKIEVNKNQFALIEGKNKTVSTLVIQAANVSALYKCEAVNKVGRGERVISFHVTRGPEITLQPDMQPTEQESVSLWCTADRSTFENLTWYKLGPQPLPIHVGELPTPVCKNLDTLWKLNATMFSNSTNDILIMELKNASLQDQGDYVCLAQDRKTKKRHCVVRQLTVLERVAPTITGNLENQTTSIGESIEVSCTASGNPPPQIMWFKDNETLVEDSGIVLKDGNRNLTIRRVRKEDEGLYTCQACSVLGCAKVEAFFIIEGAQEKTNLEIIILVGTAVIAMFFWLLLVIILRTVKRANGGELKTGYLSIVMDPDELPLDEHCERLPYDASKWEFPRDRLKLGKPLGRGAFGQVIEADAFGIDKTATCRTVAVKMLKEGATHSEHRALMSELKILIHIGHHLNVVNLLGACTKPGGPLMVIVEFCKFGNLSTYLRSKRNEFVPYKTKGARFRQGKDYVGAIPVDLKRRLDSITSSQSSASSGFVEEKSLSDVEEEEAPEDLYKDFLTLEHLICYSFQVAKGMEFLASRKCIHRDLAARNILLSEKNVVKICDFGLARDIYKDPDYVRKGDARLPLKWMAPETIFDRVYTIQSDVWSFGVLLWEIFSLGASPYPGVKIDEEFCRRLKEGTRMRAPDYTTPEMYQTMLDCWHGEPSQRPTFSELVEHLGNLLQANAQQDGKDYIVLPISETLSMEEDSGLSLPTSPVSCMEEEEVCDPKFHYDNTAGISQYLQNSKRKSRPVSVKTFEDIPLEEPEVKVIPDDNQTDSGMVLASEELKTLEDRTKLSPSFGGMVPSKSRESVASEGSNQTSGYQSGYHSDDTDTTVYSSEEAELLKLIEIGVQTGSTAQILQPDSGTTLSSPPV

B1: VEGF-C ΔNΔCHis (ligand)
chain: TEETIKFAAAHYNTEILKSIDNEWRKTQCMPREVCIDVGKEFGVATNTFFKPPCVSVYRCGGCCNSEGLQCMNTSTSYLSKTLFEITVPLSQGPKPVTISFANHTSCRCMSKLDVYRQVHSIIHHHHHH
modifications: 125I label in the tracer used for Scatchard and competition assays
notes: also called VEGF-C ΔCΔNHis; recombinantly-matured VEGF-C
Turning to B1, in data set [1], the binding result is listed as “binds”. In data set [2], binding was characterised by a dissociation constant (Kd) of 0.41 nM.
